The values below come from article PMC5397184 (Nucleic Acids Research, 2017).

Changes are numbered by the printed parent chain. In names and notes the source's numbering stands.

The series “crystal structure” deals with the molecule itself. The series is described as follows: crystal structure.
Series [1] has as its target T1, E. coli β sliding clamp (wild type, His-tagged) (E. coli, UniProt P0A988 1-366). In words: crystal structure.
The target of series [2] is T1, E. coli β sliding clamp (wild type, …). In words: SEC-MALS. Background: SEC sorts molecules by how far they enter the pores of the column.

T1 sequence (P0A988 whole entry): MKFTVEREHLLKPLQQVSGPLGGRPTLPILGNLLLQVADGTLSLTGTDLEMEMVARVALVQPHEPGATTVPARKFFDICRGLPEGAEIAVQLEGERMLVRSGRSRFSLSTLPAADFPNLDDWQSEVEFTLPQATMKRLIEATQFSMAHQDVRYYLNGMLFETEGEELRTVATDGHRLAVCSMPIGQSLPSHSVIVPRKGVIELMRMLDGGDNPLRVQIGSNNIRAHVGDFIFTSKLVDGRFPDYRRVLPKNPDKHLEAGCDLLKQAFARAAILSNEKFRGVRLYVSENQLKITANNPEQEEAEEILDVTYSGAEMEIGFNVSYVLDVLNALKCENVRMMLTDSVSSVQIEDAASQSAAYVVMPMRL

B1: E. coli Hda (full-length, wild type) (natural protein)
chain: MNTPAQLSLPLYLPDDETFASFWPGDNSSLLAALQNVLRQEHSGYIYLWAREGAGRSHLLHAACAELSQRGDAVGYVPLDKRTWFVPEVLDGMEHLSLVCIDNIECIAGDELWEMAIFDLYNRILESGKTRLLITGDRPPRQLNLGLPDLASRLDWGQIYKLQPLSDEDKLQALQLRARLRGFELPEDVGRFLLKRLDREMRTLFMTLDQLDRASITAQRKLTIPFVKEILKL
As to B1, the binding result (in “crystal structure”; in series [1]) was “binds” in each case.

B2: E. coli Hda W156A (natural protein)
chain: B1 chain with W156A
B2: the binding result in series [2] was “binds”.

B3: E. coli Hda hook mutant (K81S, W84S, F85S) (natural protein)
chain: B1 chain with K81S, W84S, F85S
For B3, in series [2], the binding result was “binds”.
